According to US20050008648A1:

Target: CD33 (UniProt P20138)
Assay: cell-based or functional assay

HuM195-dCK conjugate, sequence (B2R8V6 whole entry): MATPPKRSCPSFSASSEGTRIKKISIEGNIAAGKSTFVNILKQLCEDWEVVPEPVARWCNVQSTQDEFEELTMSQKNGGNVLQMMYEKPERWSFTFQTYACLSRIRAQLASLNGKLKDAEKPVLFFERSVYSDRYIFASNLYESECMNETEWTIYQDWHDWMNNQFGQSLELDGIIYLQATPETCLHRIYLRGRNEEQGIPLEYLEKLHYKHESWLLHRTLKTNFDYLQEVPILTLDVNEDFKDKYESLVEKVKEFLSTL
CD33, sequence (P20138 18-364 limits assumed): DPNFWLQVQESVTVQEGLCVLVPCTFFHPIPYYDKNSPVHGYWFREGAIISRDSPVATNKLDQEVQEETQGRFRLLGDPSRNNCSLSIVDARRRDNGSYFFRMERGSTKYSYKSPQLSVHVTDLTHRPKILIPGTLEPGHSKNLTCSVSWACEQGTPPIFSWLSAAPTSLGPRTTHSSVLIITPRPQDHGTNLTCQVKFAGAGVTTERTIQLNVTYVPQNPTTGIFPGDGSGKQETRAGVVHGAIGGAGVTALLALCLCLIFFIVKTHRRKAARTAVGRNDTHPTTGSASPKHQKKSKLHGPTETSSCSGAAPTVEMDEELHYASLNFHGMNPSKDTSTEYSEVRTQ

apoptosis assay on NB4 cells, conjugate with AraC 250 nM: 65%
Substance: HuM195-dCK conjugate
cell death of HL60 cells (Annexin V and propidium iodide staining), conjugate in combination with AraC 1 µM: 70%
